Source: the Human Domainome abundance scans (Beltran et al. 2025)

B1: Myocardin, residues 363 to 406; numbered along this chain, Q8IZQ8 (parent)
chain: KPGPLPPNLDDLKVSELRQQLRIRGLPVSGTKTALMDRLRPFQD

Variants of: B1
Assay: abundance fitness (aPCA) (normalised: wild type 0, dead -1); higher = more abundant; growth selection in yeast, the domain comes from the species named
Details: Homo sapiens

Abundance fitness of substitutions, site by site:
E16: H -0.983, L -0.826, R -0.827, D -0.27, T -0.515, K -0.842, W -0.613, A -0.295, M -0.615, Y -0.323
G25: N -0.024, P -0.591, L -1.12, C -0.342, Q -0.325, A -0.39, H 0.308, V -1.38, E -0.274, D -0.246, R -0.401, S -0.318, T -0.56, K 0.068, W -1.15, M -0.358, F -0.175
P7: D 0.052, A 0.12, L -0.001, Q 0.266, K 0.464, N 0.346, W -0.414, V 0.227, E 0.253, H 0.188, Y -0.085, I 0.107, M 0.239, T 0.018, S -0.009, G 0.142
I23: Y 0.013, E 0.043, A 0.091, L -0.021, N -0.45, V -0.092, Q -0.229, C -0.315, S 0.033, T -0.261, K -0.153, W -0.291, F -0.378, R -0.211, G -0.24, P -0.605
P6: F -0.356, N -0.34, M -0.135, A -0.02, T -0.197, L -0.26, E -0.131, W -0.484, G -0.153, D -0.195, I -0.361, Q -0.267, S -0.095, V -0.133
R24: L -0.429, M 0.092, Q -0.73, A -0.695, K -0.387, G -0.878, S -0.881, V -0.528, T -0.905, E -0.56
